# B1: C1orf137 (parent)
# chain: LPQETNLTLKVCKPQAPQKLDPTL
# Variants of: B1
# Assay: protein stability index of a GFP-peptide fusion (GPS, HEK-293T) (PSI 1-6); higher = more stable
# Settings: c terminus: a fixed tail appended
# 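Note: lentivirally expressed fusions sorted by FACS into six bins by GFP to DsRed ratio, PSI derived from sequencing read proportions per bin multiplied by bin number.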
row,Variant,protein stability index
1,LPQETNLTLKVCKPQAPQKLDPGL [T23G],3.8
2,LPQETNLTLKVCKPQAPQKLDPAL [T23A],3.47
3,LPQETNLTLKVCKPQAPQKLDPNL [T23N],4.2
4,LPQETNLTLKVCKPQAPQKLDPDL [T23D],4.8
5,LPQETNLTLKVCKPQAPQKLDPEL [T23E],4.91
6,LPQETNLTLKVCKPQAPQKLDPCL [T23C],3.89
7,LPQETNLTLKVCKPQAPQKLDPYL [T23Y],2.94
8,LPQETNLTLKVCKPQAPQKLDPQL [T23Q],4.21
9,LPQETNLTLKVCKPQAPQKFDPTL [L20F],3.31
10,LPQETNLTLKVCKPQAPQKNDPTL [L20N],4.29
11,LPQETNLTLKVCKPQAPQKKDPTL [L20K],4.9
12,LPQETNLTLKVCKPQAPQKRDPTL [L20R],4.42
13,LPQETNLTLKVCKPQAPQKTDPTL [L20T],4.5
14,LPQETNLTLKVCKPQAPQKVDPTL [L20V],4.03
15,LPQETNLTLKVCKPQAPQKADPTL [L20A],4.75
16,LPQETNLTLKVCKPQAPQKWDPTL [L20W],3.51
17,LPQETNLTLKVCKPQAPQKYDPTL [L20Y],4.46
18,LPQETNLTLKVCKPQAPQKGDPTL [L20G],4.91
19,LPQETNLTLKVCKPQAPQKMDPTL [L20M],4.13
20,LPQETNLTLKVCKPQAPQKEDPTL [L20E],5.09
21,LPQETNLTLKVCKPQAPQKPDPTL [L20P],4.48
22,LPQETNLTLKVCKPQAPQKHDPTL [L20H],4.43
23,LPQETNLTLKVCKPQAPQKDDPTL [L20D],4.98
24,LPQETNLTLKVCKPQAPQKCDPTL [L20C],4.18

row,Variant,protein stability index
1,LPQETNLTLKVCKPQAPQKQDPTL [L20Q],4.47
2,LPQETNLTLKVCKPQAPQKSDPTL [L20S],4.34
3,LPQETNLTLKVCKPQAPQKIDPTL [L20I],3.42
4,LPQETNLTLKVCKPQAPQKLVPTL [D21V],2.87
5,LPQETNLTLKVCKPQAPQKLAPTL [D21A],2.65
6,LPQETNLTLKVCKPQAPQKLKPTL [D21K],3.77
7,LPQETNLTLKVCKPQAPQKLLPTL [D21L],2.44
8,LPQETNLTLKVCKPQAPQKLHPTL [D21H],2.86
9,LPQETNLTLKVCKPQAPQKLIPTL [D21I],2.74
10,LPQETNLTLKVCKPQAPQKLFPTL [D21F],2.66
11,LPQETNLTLKVCKPQAPQKLMPTL [D21M],2.86
12,LPQETNLTLKVCKPQAPQKLEPTL [D21E],3.98
13,LPQETNLTLKVCKPQAPQKLCPTL [D21C],3.05
14,LPQETNLTLKVCKPQAPQKLSPTL [D21S],3.85
15,LPQETNLTLKVCKPQAPQKLYPTL [D21Y],2.73
16,LPQETNLTLKVCKPQAPQKLQPTL [D21Q],3.19
17,LPQETNLTLKVCKPQAPQKLRPTL [D21R],3.19
18,LPQETNLTLKVCKPQAPQKLGPTL [D21G],3.3
19,LPQETNLTLKVCKPQAPQKLTPTL [D21T],3.7
20,LPQETNLTLKVCKPQAPQKLPPTL [D21P],3.35
21,LPQETNLTLKVCKPQAPQKLWPTL [D21W],2.36
22,LPQETNLTLKVCKPQAPQKLNPTL [D21N],3.17
23,LPQETNLTLKVCKPQAPKKLDPTL [Q18K],3.97
24,LPQETNLTLKVCKPQAPTKLDPTL [Q18T],3.82

row,Variant,protein stability index
1,LPQETNLTLKVCKPQAPPKLDPTL [Q18P],3.75
2,LPQETNLTLKVCKPQAPSKLDPTL [Q18S],3.58
3,LPQETNLTLKVCKPQAPAKLDPTL [Q18A],4.65
4,LPQETNLTLKVCKPQAPLKLDPTL [Q18L],3.31
5,LPQETNLTLKVCKPQAPMKLDPTL [Q18M],3.28
6,LPQETNLTLKVCKPQAPDKLDPTL [Q18D],4.59
7,LPQETNLTLKVCKPQAPNKLDPTL [Q18N],3.52
8,LPQETNLTLKVCKPQAPVKLDPTL [Q18V],3.56
9,LPQETNLTLKVCKPQAPHKLDPTL [Q18H],3.69
10,LPQETNLTLKVCKPQAPCKLDPTL [Q18C],3.79
11,LPQETNLTLKVCKPQAPGKLDPTL [Q18G],3.59
12,LPQETNLTLKVCKPQAPIKLDPTL [Q18I],3.92
13,LPQETNLTLKVCKPQAPFKLDPTL [Q18F],2.39
14,LPQETNLTLKVCKPQAPRKLDPTL [Q18R],3.8
15,LPQETNLTLKVCKPQAPYKLDPTL [Q18Y],3.13
16,LPQETNLTLKVCKPQAPEKLDPTL [Q18E],3.23
17,LPQETNLTLKVCKPQAKQKLDPTL [P17K],4.13
18,LPQETNLTLKVCKPQAMQKLDPTL [P17M],3.68
19,LPQETNLTLKVCKPQAWQKLDPTL [P17W],2.3
20,LPQETNLTLKVCKPQASQKLDPTL [P17S],3.62
21,LPQETNLTLKVCKPQAYQKLDPTL [P17Y],3.57
22,LPQETNLTLKVCKPQAHQKLDPTL [P17H],3.58
23,LPQETNLTLKVCKPQANQKLDPTL [P17N],3.21
24,LPQETNLTLKVCKPQAVQKLDPTL [P17V],3.95

row,Variant,protein stability index
1,LPQETNLTLKVCKPQATQKLDPTL [P17T],3.81
2,LPQETNLTLKVCKPQAAQKLDPTL [P17A],3.97
3,LPQETNLTLKVCKPQARQKLDPTL [P17R],3.17
4,LPQETNLTLKVCKPQAEQKLDPTL [P17E],4.27
5,LPQETNLTLKVCKPQADQKLDPTL [P17D],4.52
6,LPQETNLTLKVCKPQAIQKLDPTL [P17I],4
7,LPQETNLTLKVCKPQAQQKLDPTL [P17Q],4.36
8,LPQETNLTLKVCKPQACQKLDPTL [P17C],3.51
9,LPQETNLTLKVCKPQALQKLDPTL [P17L],3.07
10,LPQETNLTLKVCKPQAFQKLDPTL [P17F],3.03
11,LPQETNLTLKVCKPQAGQKLDPTL [P17G],3.74
12,LPQETNLTLKVCKPMAPQKLDPTL [Q15M],3.28
13,LPQETNLTLKVCKPLAPQKLDPTL [Q15L],2.96
14,LPQETNLTLKVCKPVAPQKLDPTL [Q15V],3.65
15,LPQETNLTLKVCKPRAPQKLDPTL [Q15R],3.69
16,LPQETNLTLKVCKPKAPQKLDPTL [Q15K],3.69
17,LPQETNLTLKVCKPWAPQKLDPTL [Q15W],3.5
18,LPQETNLTLKVCKPTAPQKLDPTL [Q15T],4.08
19,LPQETNLTLKVCKPSAPQKLDPTL [Q15S],3.86
20,LPQETNLTLKVCKPYAPQKLDPTL [Q15Y],2.64
21,LPQETNLTLKVCKPIAPQKLDPTL [Q15I],3.03
22,LPQETNLTLKVCKPNAPQKLDPTL [Q15N],4.04
